Data: patent publication US20110243962A1 (GENEURO, published 2011)

Assays:
[1] = biological target: T1, MSRV complete ENV protein (ENV-T), recombinant from E. coli (MSRV (Multiple Sclerosis associated …)); assay: cell-based or functional assay
T1 chain: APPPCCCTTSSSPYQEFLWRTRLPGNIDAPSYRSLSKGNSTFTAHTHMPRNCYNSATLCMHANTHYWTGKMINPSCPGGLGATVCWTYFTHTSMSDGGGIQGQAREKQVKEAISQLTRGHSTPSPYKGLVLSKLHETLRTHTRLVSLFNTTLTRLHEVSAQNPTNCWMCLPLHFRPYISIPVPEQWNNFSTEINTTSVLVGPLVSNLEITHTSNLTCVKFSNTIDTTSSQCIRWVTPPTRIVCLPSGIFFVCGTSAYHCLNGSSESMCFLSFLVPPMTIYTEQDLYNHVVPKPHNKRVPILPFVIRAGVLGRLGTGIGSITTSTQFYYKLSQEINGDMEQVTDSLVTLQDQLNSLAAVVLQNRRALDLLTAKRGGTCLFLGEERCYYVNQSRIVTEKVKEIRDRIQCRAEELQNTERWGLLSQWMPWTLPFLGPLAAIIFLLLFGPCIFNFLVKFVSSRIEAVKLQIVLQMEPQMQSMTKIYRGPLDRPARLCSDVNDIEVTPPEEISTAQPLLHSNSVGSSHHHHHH

[2] = biological target: T2, MSRV ENV surface domain fragment (ENV-SU), recombinant from E. coli (MSRV (Multiple Sclerosis associated …)); assay: cell-based or functional assay
T2 chain: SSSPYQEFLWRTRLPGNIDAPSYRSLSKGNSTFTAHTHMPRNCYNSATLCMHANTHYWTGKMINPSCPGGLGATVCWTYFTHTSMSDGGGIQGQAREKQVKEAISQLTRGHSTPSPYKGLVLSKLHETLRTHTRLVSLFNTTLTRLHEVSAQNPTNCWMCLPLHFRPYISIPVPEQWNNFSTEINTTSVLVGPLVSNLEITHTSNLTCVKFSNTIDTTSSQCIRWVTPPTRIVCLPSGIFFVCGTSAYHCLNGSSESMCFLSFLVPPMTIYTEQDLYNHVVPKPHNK

B1: Humanized GNb AC1 IgG4 antibody (stabilized, H2 S241P heavy chain and VK3 light chain) (antibody, V domains shown)
VH: QVQLVQSGAEVKKPGSSVKVSCKASGYTFTDYEMHWVRQAPGQGLEWIGAVAPETGGTAYNQKFKGRATITADKSTSTAYMELSSLRSEDTAVYYCTSTVVPFAYWGQGTLVTVSS
VL: QIQLTQSPSSLSASVGDRVTITCSASSSVSYMYWYQQKPGKAPKAWIYRTSNLASGVPSRFSGSGSGTDYTLTISSLQPEDFATYYCQQYQSLPLTFGGGTKVEIKR
IL-6 at 24 h in PBMC culture with ENV-T 0.1 ug/ml, MAb ratio 10/1 (no antibody: 4363) [1]: 2910
IFN-g at 72 h in PBMC culture with ENV-SU 0.5 ug/ml, MAb ratio 10/1 (no antibody: 336) [2]: 46
